Where no end group is shown, it is not given here. The star is where a group is joined. Biotin = O=C1N[C@H]2[C@H](CS[C@H]2CCCCC(=O)*)N1

As usually defined, the Kd is the constant that tells how readily two partners part at equilibrium. The low end stands for higher affinity, the high end for lower affinity.

The target of assay [1] is T1, Thrombin (UniProt P00734 328-622). As to the kind of experiment: SPR (Biacore multiple cycle kinetics). For orientation: SPR reads the build-up and loss of mass on a sensor chip optically.
The target in assay [2] is T1, Thrombin. In words: SPR (Biacore single cycle kinetics).

B1: Biotin-GCTSVHQETKKYQSRDPGRLIFQSSYTYNYEHVDVWGCG (designed binder)
peptide: Biotin-GCTSVHQETKKYQSRDPGRLIFQSSYTYNYEHVDVWGCG
modifications: cysteine pairing not given here
Regarding B1, binding with Thrombin [1] was characterised by a dissociation constant (Kd) of 0.78 nM.

B2: Biotin-GGGGSGGGGSRDPGRLIFQS (peptide)
peptide: Biotin-GGGGSGGGGSRDPGRLIFQS
In the case of B2, in the assay with Thrombin [1], the affinity, expressed as Kd, was 36.6 nM.

B3: peptide encoded by linear DNA template 300-53-C (cow antibody scaffold with RDPGRLIFQS and Strep-tag II) (designed binder)
chain: MGCTSVHQETKKYQSRDPGRLIFQSSYTYNYEHVDVWGCGSAWSHPQFEKGS
Molecule B3 registered a Kd with Thrombin [2] of 0.96 nM.

The values are drawn from patent publication US20160312212A1 (published 2016).
